Assay results as given in patent publication US11629364B2, “Methods for synthesizing anticoagulant polysaccharides” (OPTIMVIA, LLC, priority 2019, dated 2023).
Substitutions are numbered along the chain they refer to. One block for each molecule: values may come before it.

Legend:
[1] = 3OST activity: 3-O sulfated products detected by LCMS after lyase digestion; format: biochemical; details: for abundance of 3-O sulfation in product: relative to the commercial heparin standard; for 3OST activity: N,2,3,6-HS products by MS and/or NMR: procedures of Example 5 and/or Example 6, expected
Experimental: A study was conducted in accordance with embodiments of the present disclosure to confirm 3OST activity of enzymes comprising the amino acid sequence of SEQ ID NO: 24, SEQ ID NO: 26, or SEQ ID NO: 28 by detecting the presence of 3-O sulfated polysaccharide products as a result of their sulfotransfer reaction, using a reaction, using a similar LCMS procedure as in Example 3, except that the sulfo acceptor polysaccharide was commercially-available heparin (CAS code: 9041-08-1, available from Millipore Sigma). Even though the unmodified heparin contains ˜3.5% (w/w) of 3-O sulfated glucosamine residues, about ˜60% of the glucosamine residues are N,6-sulfated and are adjacent to a 2-O sulfated hexuronic acid residue, as in Formula X. Consequently, these N,6-sulfated glucosamine residues can still be 3-O sulfated.

[2] = NST activity: N-sulfated products detected by SAX-HPLC after lyase digestion; format: biochemical; details: procedures of Example 2; expected
Experimental: A study was conducted in accordance with embodiments of the present disclosure to confirm NST activity of enzymes comprising the amino acid sequence of SEQ ID NO: 2, SEQ ID NO: 4, SEQ ID NO: 6, SEQ ID NO: 8, SEQ ID NO: 10, or SEQ ID NO: 12 by detecting the presence of N-sulfated polysaccharide products formed as a result of their sulfotransfer reaction, using mass spectrometry (MS). Each engineered enzyme was purified according to the procedure of Example 1. Sulfotransferase activity was monitored in 100 μL reactions containing 50 μM of enzyme. To each purified protein solution, 20 mg of an aryl sulfate compound (either PNS or NCS) was dissolved in 2 mL of reaction buffer (50 mM IVIES pH 7.0, 2 mM CaCl2)), added to the protein solution, and incubated at 37° C. for 10 min. 2.5 mL of 2 mg/mL solution of N-deacetylated heparosan was added to protein/donor solution and incubated overnight at 37° C. The N-deacetylated heparosan was synthesized according to the protocol described in Balagurunathan, K. et al (eds.) (2015), Glycosaminoglycans: Chemistry and Biology, Methods in Molecular Biology, vol. 1229, DOI 10.1007/978-1-4939-1714-3_2, ©Springer Science+Business Media, New York, pp. 11-19 (section 3.1). To purify the N-sulfated product, the incubated reaction mixture was centrifuged the following day at 5,000×g for 10 min. The filter was washed once with 2 mL water, and centrifuged again. The filtrate was added to a 1K MWCO Dialysis membrane, dialyzed for 2 days in Milli-Q water, with water changes at 1 h, 2 h, 8 h, 16 h, 32 h, and then lyophilized.
The lyophilized N-sulfated products from each reaction were subsequently digested with a mixture of three carbon-oxygen lyases comprising the amino acid sequences of SEQ ID NO: 30, SEQ ID NO: 31, and SEQ ID NO: 32, which catalyze the β-eliminative cleavage of heparosan-based polysaccharides. Such lyases are available from New England Biolabs, among other chemical and biological commercial entities. 1 μL of each lyase was incubated with 50 μg of the lyophilized sulfated polysaccharide product and the provided digestion buffer, and incubated over 24 hours according to the packaged instructions provided by New England Biolabs with each lyase. After digestion, the lyase enzymes were inactivated by heating to 100° C. for 5 minutes. Samples were centrifuged at 14,000 rpm for 30 minutes before introduction to a strong anion exchange, high performance liquid chromatography (SAX) analysis. SAX analysis was performed on a Dionex Ultimate 3000 LC system interface. Separation was carried out on a 4.6×250 mm Waters Spherisorb analytical column with 5.0 μm particle size at 45° C. Mobile phase solution A was 2.5 mM sodium phosphate, pH 3.5, while mobile phase solution B was 2.5 mM sodium phosphate, pH 3.5, and 1.2 M Sodium perchlorate. After each sample was loaded onto the column, mobile phase solutions were applied to the column at a ratio of 98% mobile phase solution A and 2% mobile phase solution B for five minutes at a flow rate of 1.4 mL/min. After five minutes, a linear gradient of increasing mobile phase solution B was applied until the ratio of mobile phase solution A to mobile phase solution B was 50:50.

3OST activity with PNS ([1]; PNS as aryl sulfate compound): not active | abundance of 3-O sulfation in product [1]: higher abundance of 3-O sulfation
B1: SEQ ID NO: 28: engineered aryl sulfate-dependent 3OST enzyme, mutant of isoform 1 of the human 3OST enzyme (protein)
chain: MGTASNGSTQQLPQTIIIGVGHGGTRALLEMLSLHPDVAAAENEVHFFDWEEHYSQGLGWYLTQMPFSSPHQLTVEKTHSYFTSPKVPERIHSMNPTIRLLLILRDPSERVLSLGTHLLYVHLQKHKPYPPIEDLLMRDGRLNLDYTGLNRSLYHAHMLNWLRFFPLGHIHIVDGDRLIRDPFPEIQKVERFLKLSPQINASNFYFNKTKGFYCLRDSGKDRCLHESKGRAHPQVDPKLLDKLHEYFHEPNKKFFKLVGRTFDWH
modifications: Amino acid sequence encoding for engineered arylsulfate-dependent 3-O-sulfotransferase variant 3
notes: engineered aryl sulfate-dependent 3OST enzyme, mutant of isoform 1 of the human 3OST enzyme

abundance of 3-O sulfation in product [1]: higher abundance of 3-O sulfation
B2: SEQ ID NO: 24: engineered aryl sulfate-dependent 3OST enzyme, mutant of isoform 1 of the human 3OST enzyme (protein)
chain: B1 chain with L114A, G115Y, L118M, V121N, T147V
modifications: Amino acid sequence encoding for engineered arylsulfate-dependent 3-O-sulfotransferase variant 1
notes: as for B1

B3: SEQ ID NO: 37: mutant of N-sulfotransferase domain of pig NDST carrying the SEQ ID NO: 6 mutations (protein)
chain: MSEEKDPLWQDPCEDKRHKDIWSKEKTCDRFPKLLIIGPHHTGGHALYLFLGLHPDLSSNYPSSETGEEIQFFNGHNYHKGIDWYMDFFPIPSNTTSDFYFEKSANYFDSDVAPRRAAALLPKAKVLTILINPADRAYSWYQAQRAHDDPAALRYTFHEVITAGPDASLKLRALQNRCLVPGWYATHLERWLGAFHANQILVLDGKLLRTEPARVMDTVQKFLGVTNTIDYHKTLAFDPKKGFWCQLLEGGKTKCGGRHLGRKYPDMDPDSRAFLRDYYRDHNIELSKLLYKMGQTLPTWLREELQNTR
modifications: Amino acid sequence encoding for engineered arylsulfate-dependent N-sulfotransferase variant 11
NST activity: N-sulfated products by SAX [2]: confirm the presence of N-sulfated polysaccharide products

B4: SEQ ID NO: 38: mutant of N-sulfotransferase domain of pig NDST carrying the SEQ ID NO: 8 mutations (protein)
chain: MSEEKDPLWQDPCEDKRHKDIWSKEKTCDRFPKLLIIGPHGTGGHALYLFLGLHPDLSSNYPSSETFLSIQFFNGHNYHKGIDWYMDFFPIPSNTTSDFYFEHSGNYFDSDVAPRRAAALLPKAKVLTILINPADRAYRAYVWQRAHDDPAALRYTFHEVITAGPDASLKLRALQNRCLVPGWYATHLERWLGAFHANQILVLDGKLLRTEPARVMDTVQKFLGVTNTIDYHKTLAFDPKKGFWCQLLEGGKTKCLGRSLGSKYPDMDPDSRAFLRDYYRDHNIELSKLLYKMGQTLPTWLREELQNTR
modifications: Amino acid sequence encoding for engineered arylsulfate-dependent N-sulfotransferase variant 12
NST activity: N-sulfated products by SAX [2]: confirm the presence of N-sulfated polysaccharide products

B5: SEQ ID NO: 40: mutant of N-sulfotransferase domain of pig NDST carrying the SEQ ID NO: 12 mutations (protein)
chain: MSEEKDPLWQDPCEDKRHKDIWSKEKTCDRFPKLLIIGPAKTGAWLLHHFLGLHPDLSSNYPSSETHSSIQFFNGHNYHKGIDWYMDFFPIPSNTTSDFYFETSANYFDSDVAPRRAAALLPKAKVLTILINPADRAYSWYQHQRAHDDPAALRYTFHEVITAGPDASLKLRALQNRCLVPGWYATHLERWLGAFHANQILVLDGKLLRTEPARVMDTVQKFLGVTNTIDYHKTLAFDPKKGFWCQLLEGGKTKCAHRGLGRKYPDMDPDSRAFLRDYYRDHNIELSKLLYKMGQTLPTWLREELQNTR
modifications: Amino acid sequence encoding for engineered arylsulfate-dependent N-sulfotransferase variant 14
NST activity: N-sulfated products by SAX [2]: confirm the presence of N-sulfated polysaccharide products

B6: SEQ ID NO: 39: mutant of N-sulfotransferase domain of pig NDST carrying the SEQ ID NO: 10 mutations (protein)
chain: MSEEKDPLWQDPCEDKRHKDIWSKEKTCDRFPKLLIIGPHKTGVHALYLFLGLHPDLSSNYPSSETGNHIGFFGGHNYHKGIDWYMDFFPIPSNTTSDFYFEKSAWYFDSDVAPRRAAALLPKAKVLTILINPADRAYSWYQHQRAHDDPAALRYTFHEVITAGPDASLKLRALQNRCLVPGWYATHLERWLGAFHANQILVLDGKLLRTEPARVMDTVQKFLGVTNTIDYHKTLAFDPKKGFWCQLLEGGKTKCLGRSVGRKYPDMDPDSRAFLRDYYRDHNIELSKLLYKMGQTLPTWLREELQNTR
modifications: Amino acid sequence encoding for engineered arylsulfate-dependent N-sulfotransferase variant 13
NST activity: N-sulfated products by SAX [2]: confirm the presence of N-sulfated polysaccharide products

B7: SEQ ID NO: 52: mutant of isoform 1 of the pig 3OST enzyme, SEQ ID NO: 24 mutations (protein)
chain: MGVAPNGSAQQLPQTIIIGVGHGGTRALLEMLSLHPDVAAAENEVHFFDWEEHYSHGLGWYLSQMPFSWPHQLTVEKTHSYFTSPKVPERVYSMNPSIRLLLILRDPSERVLSLGTHLFYVHMQKHKPYPSIEEFLVRDGRLNVDYTGLNRSLYHVHMQNWLRFFPLRHIHIVDGDRLIRDPFPEIQKVERFLKLSPQINASNFYFNKTKGFYCLRDSGRDRCLHESKGRAHPQVDPKLLNKLHEYFHEPNKKFFELVGRTFDWH
modifications: Amino acid sequence encoding for engineered arylsulfate-dependent 3-O-sulfotransferase variant 5
3OST activity: N,2,3,6-HS products by MS and/or NMR [1]: confirm the presence of N,2,3,6-HS products

B8: SEQ ID NO: 54: mutant of isoform 1 of the pig 3OST enzyme, SEQ ID NO: 28 mutations (protein)
chain: B7 chain
modifications: Amino acid sequence encoding for engineered arylsulfate-dependent 3-O-sulfotransferase variant 7
3OST activity: N,2,3,6-HS products by MS and/or NMR [1]: confirm the presence of N,2,3,6-HS products

B9: SEQ ID NO: 53: mutant of isoform 1 of the pig 3OST enzyme, SEQ ID NO: 26 mutations (protein)
chain: B7 chain with L114A, G115Y, L118M, V121N
modifications: Amino acid sequence encoding for engineered arylsulfate-dependent 3-O-sulfotransferase variant 6
3OST activity: N,2,3,6-HS products by MS and/or NMR [1]: confirm the presence of N,2,3,6-HS products
